From publication PMC10221034 (2023)

Biological target: wild-type rTpiA (recombinant Streptococcus pneumoniae D39 triosephosphate isomerase) (Streptococcus pneumoniae D39) (UniProt Q04JH4)
Assay: SPR; Biacore X100; rTpiA immobilised on CM5 chip by amine coupling; plasminogen 6.25-100 nM injected, contact time 120 s, 20 µL/min; running buffer 100 mM HEPES pH 7.4, 150 mM NaCl, 3 mM EDTA, 0.005% surfactant P20; apparent constants

Sequence of wild-type rTpiA (recombinant Streptococcus pneumoniae D39 triosephosphate isomerase) (Streptococcus pneumoniae D39) (Q04JH4 2-252): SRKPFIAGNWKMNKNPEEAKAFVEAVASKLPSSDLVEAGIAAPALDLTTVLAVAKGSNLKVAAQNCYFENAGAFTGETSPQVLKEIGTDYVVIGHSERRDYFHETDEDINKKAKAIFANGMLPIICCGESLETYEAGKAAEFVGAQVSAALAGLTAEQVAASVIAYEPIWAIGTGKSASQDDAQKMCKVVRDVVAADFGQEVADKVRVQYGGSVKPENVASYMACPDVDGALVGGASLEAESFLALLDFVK

## human plasma plasminogen (natural protein)
  Kd: 865 nM
  koff: 0.00375 s⁻¹
  kon: 4340 M⁻¹ s⁻¹
